B1: ET200-008 (scFv)
scFv: QSALTQPASVSGSPGQSITISCTGTSSDVGGYNYVSWYQQHPGKAPKLMIYDVSNRPSGVSNRFSGSKSGNTASLTISGLQAEDEADYYCSSYTSSSTSKVFGGGTKLTVLGSRGGGGSGGGGSGGGGSLEMAEVQLVESGGGVVRPGGSLRLSCAASGFTFGDYGMSWVRQAPGKGLEWVSGINWNGGSTGYADSVKGRFTISRDNAKNSLYLQMNSLRAEDTAVYYCARSKYNFHVYYDYWGQGTLVTVSSTSGQAGQHHHHHHGAYPYDVPDYAS
notes: screened as phage clone; entry is VL-linker-VH-His tag-HA tag
B2: ET200-121 (scFv)
scFv: QSVLTQPPSVSGAPGQRVTVSCTGSRSNIGAGYDVHWYQQLPGTAPKLLIYGNSNRPPGVPDRFSGSKSGTSASLVITGLQAEDAADYYCQSYDNTVRESPYVFGTGTKVTVLGSRGGGGSGGGGSGGGGSLEMAEVQLVQSGAEVKKPGASVKVSCKVSGYTLTELSMHWVRQAPGKGLEWMGGFDPEDGETIYAQKFQGRVTMTEDTSTDTAYMELSSLRSEDTAVYYCATESNLVSRHYYYYGMDVWGQGTTVTVSSTSGQAGQHHHHHHGAYPYDVPDYAS
notes: as for B1
B3: ET200-123 (scFv)
scFv: QAVLTQPPSASGTPGQRVTISCSGSSSNIGSNTVNWYQQLPGTAPKLLMYNNDQRPSGVPDRFSGSKSGTSASLAISGLQSEDEADYYCAAWDDSLNGYVFGPGTKVTVLGSRGGGGSGGGGSGGGGSLEMAQVQLVESGAEVKKPGASVKVSCKASGYTFTSYGISWVRQAPGQGLEWMGWISAYNGNTNYAQKLQGRVTMTTDTSTSTAYMELRSLRSDDTAVYYCARDLSRGANPHYYYYYGMDVWGQGTTVTVSSTSGQAGQHHHHHHGAYPYDVPDYAS
notes: as for B1
B4: ET200-125 (scFv)
scFv: NFMLTQPHAVSESPGKTVTISCTRSSGSIASNYVQWYQQRPGSSPRTVIYEDNQRPSGVPGRFSGSIDSSSNSASLTISGLKTEDEADYYCQSYDSTSVLFGGGTKLTVLGSRGGGGSGGGGSGGGGSLEMAEVQLVQSGAEVKKPGSSVKVSCKASGGTFSSNSLSWVRQAPGQGLEWMGRIFPILGITNYAQKFQGRVTITADKSTSTAYMELSSLRSEDTAVYYCARGNYQWYDAFDIWGQGTMVTVSSTSGQAGQHHHHHHGAYPYDVPDYAS
notes: as for B1
B5: ET200-005 (scFv)
scFv: QPVLTQPPSVSVVPGKTARITCGGKNIGSKSVHWYQQKPGQAPVVVIHYDSDRPSGIPERFSGSNSGNTATLTISRVEAGDEADYYCQVWDSSSDHPYVFGTGTKVTVLGSRGGGGSGGGGSGGGGSLEMAQVQLVQSGAEVKKPGASVKVSCKASGYTFTNYGISWVRQAPGQGLEWMGWISAYNGNTNYAHKLQGRVTMTTDTSTSTANMELRSLRPDDTAVYYCARSYFGSHDYWGQGTLVTVSSTSGQAGQHHHHHHGAYPYDVPDYAS
notes: as for B1
B6: ET200-124 (scFv)
scFv: SYVLTQPPSVSVAPGKTARISCGGNDIGSKSVFWYQQRPGQAPVLVVYDDSDRPSGLPERFSGFNSGNTATLTISRVEAGDEADYYCQVWDSSSDHYVFGTGTKVTVLGSRGGGGSGGGGSGGGGSLEMAQVQLVESGGGLVQPGRSLRLSCAASGFTFDDYAMHWVRQAPGKGLEWVSGISWNSGSIGYADSVKGRFTISRDNAKNSLYLQMNSLRAEDTALYYCAKDITYGSGSYGAFDIWGQGTMVTVSSTSGQAGQHHHHHHGAYPYDVPDYAS
notes: as for B1
B7: ET200-009 (scFv)
scFv: QSVLTQPPSASGTPGQTVTISCSGSNSNIGSNYVYWYQQLPGTAPKLLIYRNNQRPSGVPDRFSGSKSGTSASLAISGLRSEDEADYYCAAWDDSLSAYVFGTGTKVTVLGSRGGGGSGGGGSGGGGSLEMAQVQLVQSGAEVKKPGASVKVSCKASGYTFTSYGISWVRQAPGQGLEWMGWISAYNGNTNYAQKLQGRVTMTTDTSTSTAYMELRSLRSDDTAVYYCARSSGNMVSWKDMWGQGTLVTVSSTSGQAGQHHHHHHGAYPYDVPDYAS
notes: as for B1
B8: ET200-010 (scFv)
scFv: QSALTQPASVSGSPGQSITISCTGTSSDVGGYNSVSWYQQHPGKAPRLMIYDVSNRPSGVSNRFSGSKSGNTASLTISGLQAEDEADYYCSSYTSSSTPLVFGTGTKVTVLGSRGGGGSGGGGSGGGGSLEMAQVQLVQSGAEVKKPGASVKVSCKASGYTFTSYGISWVRQAPGQGLEWMGWISAYNGNTNYAQKLQGRVTMTTDTSTSTAYMELRSLRSDDTAVYYCARGAVAYHDWGQGTLVTVSSTSGQAGQHHHHHHGAYPYDVPDYAS
notes: as for B1

Target: SLAMF9 protein (UniProt Q96A28 19-236, limits assumed)
Sequence (Q96A28 19-236 limits assumed): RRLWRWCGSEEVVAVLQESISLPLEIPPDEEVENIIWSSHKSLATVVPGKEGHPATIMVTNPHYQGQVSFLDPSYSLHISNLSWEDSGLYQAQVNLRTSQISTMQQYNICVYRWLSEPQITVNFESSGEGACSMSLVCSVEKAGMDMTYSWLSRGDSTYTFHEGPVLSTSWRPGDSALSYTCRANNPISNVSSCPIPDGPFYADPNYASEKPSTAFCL
Assay: phage clone on SLAMF9 protein

Q: Does B1 bind?
A: no binding

Q: Does B2 bind?
A: no binding

Q: Does B3 bind?
A: no binding

Q: Does B4 bind?
A: no binding

Q: Does B5 bind?
A: no binding

Q: Does B6 bind?
A: no binding

Q: Does B7 bind?
A: no binding

Q: Does B8 bind?
A: no binding

Target: T1, FcRL1, overexpressed on 3T3 cells (UniProt Q96LA6 17-429, limits assumed)
T1 construct: whole, on cells
T1 sequence (looked up): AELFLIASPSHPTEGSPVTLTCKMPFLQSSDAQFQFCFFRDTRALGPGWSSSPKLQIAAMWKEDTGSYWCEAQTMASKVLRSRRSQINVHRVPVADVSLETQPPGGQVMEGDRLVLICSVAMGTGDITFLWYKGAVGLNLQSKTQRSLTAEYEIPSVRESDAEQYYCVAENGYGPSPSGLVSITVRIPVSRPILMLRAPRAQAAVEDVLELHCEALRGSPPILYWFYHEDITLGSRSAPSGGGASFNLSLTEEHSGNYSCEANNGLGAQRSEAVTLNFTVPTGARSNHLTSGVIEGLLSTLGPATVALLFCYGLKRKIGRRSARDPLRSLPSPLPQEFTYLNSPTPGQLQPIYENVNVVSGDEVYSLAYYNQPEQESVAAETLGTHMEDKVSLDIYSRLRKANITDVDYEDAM
Assay: phage clone on 3T3-FcRL1 cells

Q: Does B1 bind?
A: no binding

Q: Does B2 bind?
A: no binding

Q: Does B3 bind?
A: no binding

Q: Does B4 bind?
A: no binding

Q: Does B5 bind?
A: no binding

Q: Does B6 bind?
A: no binding

Q: Does B7 bind?
A: no binding

Q: Does B8 bind?
A: no binding

Target: T2, FcRL2, overexpressed on 3T3 cells (UniProt Q96LA5 20-508, limits assumed)
T2 construct: whole, on cells
T2 sequence (looked up): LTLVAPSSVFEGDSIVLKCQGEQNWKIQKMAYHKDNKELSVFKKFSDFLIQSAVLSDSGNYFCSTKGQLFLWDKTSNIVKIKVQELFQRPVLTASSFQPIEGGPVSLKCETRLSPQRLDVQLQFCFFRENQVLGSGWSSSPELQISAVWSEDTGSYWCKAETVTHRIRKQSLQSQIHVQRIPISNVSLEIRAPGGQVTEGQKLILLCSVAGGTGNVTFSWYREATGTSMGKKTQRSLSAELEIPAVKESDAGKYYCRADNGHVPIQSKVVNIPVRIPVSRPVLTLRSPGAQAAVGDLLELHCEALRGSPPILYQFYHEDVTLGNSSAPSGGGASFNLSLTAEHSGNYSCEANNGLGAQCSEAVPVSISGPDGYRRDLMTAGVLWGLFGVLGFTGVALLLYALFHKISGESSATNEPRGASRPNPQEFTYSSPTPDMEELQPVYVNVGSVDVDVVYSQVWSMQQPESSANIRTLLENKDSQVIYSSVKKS
Assay: phage clone on 3T3-FcRL2 cells

Q: Does B1 bind?
A: no binding

Q: Does B2 bind?
A: no binding

Q: Does B3 bind?
A: no binding

Q: Does B4 bind?
A: no binding

Q: Does B5 bind?
A: no binding

Q: Does B6 bind?
A: no binding

Q: Does B7 bind?
A: no binding

Q: Does B8 bind?
A: no binding

Target: T3, FcRL6, overexpressed on 3T3 cells (UniProt Q6DN72 20-434, limits assumed)
T3 construct: whole, on cells
T3 sequence (looked up): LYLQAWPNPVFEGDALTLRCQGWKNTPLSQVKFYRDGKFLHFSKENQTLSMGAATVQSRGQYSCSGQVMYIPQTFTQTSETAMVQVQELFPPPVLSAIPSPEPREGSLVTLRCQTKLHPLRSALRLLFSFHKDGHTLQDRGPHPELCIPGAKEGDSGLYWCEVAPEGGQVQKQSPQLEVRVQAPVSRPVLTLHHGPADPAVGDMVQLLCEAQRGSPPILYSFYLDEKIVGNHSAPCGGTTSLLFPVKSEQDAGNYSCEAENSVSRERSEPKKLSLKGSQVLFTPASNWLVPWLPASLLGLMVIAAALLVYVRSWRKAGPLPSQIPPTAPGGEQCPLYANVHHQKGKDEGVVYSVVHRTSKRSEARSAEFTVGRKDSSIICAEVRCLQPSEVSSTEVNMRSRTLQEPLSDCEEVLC
Assay: phage clone on 3T3-FcRL6 cells

Q: Does B1 bind?
A: no binding

Q: Does B2 bind?
A: no binding

Q: Does B3 bind?
A: no binding

Q: Does B4 bind?
A: no binding

Q: Does B5 bind?
A: no binding

Q: Does B6 bind?
A: no binding

Q: Does B7 bind?
A: no binding

Q: Does B8 bind?
A: no binding

Target: T4, Fc Receptor-like 5 (FcRL5), full length, overexpressed on 3T3 or Raji cells (human, UniProt Q96RD9 16-977)
T4 construct: also called 3T3-FcRL5
T4 sequence: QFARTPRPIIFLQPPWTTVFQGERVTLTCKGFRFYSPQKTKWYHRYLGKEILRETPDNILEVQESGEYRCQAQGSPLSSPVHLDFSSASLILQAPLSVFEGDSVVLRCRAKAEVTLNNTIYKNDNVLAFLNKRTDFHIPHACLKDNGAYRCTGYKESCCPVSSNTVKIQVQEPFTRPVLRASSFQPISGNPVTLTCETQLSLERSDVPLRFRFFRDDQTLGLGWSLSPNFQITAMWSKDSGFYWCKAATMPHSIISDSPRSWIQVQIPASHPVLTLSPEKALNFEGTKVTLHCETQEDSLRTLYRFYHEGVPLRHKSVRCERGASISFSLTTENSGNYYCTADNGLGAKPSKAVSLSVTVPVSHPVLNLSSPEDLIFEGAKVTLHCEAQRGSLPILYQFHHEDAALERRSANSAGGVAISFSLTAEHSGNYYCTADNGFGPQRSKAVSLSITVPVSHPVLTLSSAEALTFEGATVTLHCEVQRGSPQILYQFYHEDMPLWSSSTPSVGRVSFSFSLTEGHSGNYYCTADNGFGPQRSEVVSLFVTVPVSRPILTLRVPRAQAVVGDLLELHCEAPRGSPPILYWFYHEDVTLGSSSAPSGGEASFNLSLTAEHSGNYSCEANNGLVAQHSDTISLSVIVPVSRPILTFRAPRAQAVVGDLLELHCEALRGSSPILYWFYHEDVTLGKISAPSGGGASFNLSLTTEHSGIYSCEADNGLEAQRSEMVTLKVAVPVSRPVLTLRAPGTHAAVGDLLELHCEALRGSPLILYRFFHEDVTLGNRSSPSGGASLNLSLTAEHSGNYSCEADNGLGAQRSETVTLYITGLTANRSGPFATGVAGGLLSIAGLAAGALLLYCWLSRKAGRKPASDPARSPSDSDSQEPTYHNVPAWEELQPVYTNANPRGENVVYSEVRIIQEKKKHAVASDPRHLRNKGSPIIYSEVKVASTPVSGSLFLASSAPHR
Assay: phage clone screening on cells
Procedure, shortened: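 scFv phage clones were incubated with live 3T3 cells overexpressing full-length FcRL5, then detected with mouse anti-M13 mAb and PE-anti-mouse Ig by flow cytometry. 3T3 cells expressing FcRL1, 2, 3, 4 or 6 served as negative-control targets.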

Q: Does B1 bind?
A: binds

Q: Does B2 bind?
A: binds

Q: Does B3 bind?
A: binds

Q: Does B4 bind?
A: binds

Q: Does B5 bind?
A: binds

Q: Does B6 bind?
A: binds

Q: Does B7 bind?
A: binds

Q: Does B8 bind?
A: binds
